In US20040018515A1, “Compositions selective for adenosine diphosphate and methods of using same” (priority 2002, published 2004):

Key:
[1] = ADP SPA screening of ADP aptamer clones; format: binding; conditions: 1 μM 3H-ADP; vs. clone R0; FIG. 27
Procedure: Mini-prepped plasmid DNA and corresponding sequence (Table 4) were obtained from Lark Technologies. Any sequence that differed by more than two nucleotides from all other ADP aptamer clones was considered to be unique for the purposes of screening. “Unique” clones were PCR amplified from purified plasmid DNA using the original 5′-primer used in the selections (JD18.25B; SEQ ID NO: 17) and a new 3′-primer, 5′-[…]-3′ (JD18.122.A; 200 nM scale, 46-mer) Tm ˜58° C.; SEQ ID NO: 72). This primer adds a 3′-sequence tag to the transcribed RNA molecules which allows the aptamer clones to be immobilized onto the surface of an NEN streptavidin coated flash plate via base pairing with a biotinylated DNA capture oligo (MK08.112A; 5′-biotin-[…]-3′; SEQ ID NO: 73).
NEN flashplates used in the ADP SPA screen and competition binding studies were prepared by incubating the individual wells with 40 pmol of MK08.112A biotinylated capture probe in 22 μl of PBS Buffer: BupH (0.05% tRNA, 0.025% Tween 20) with and shaking at 650 RPM, 15 min. […] Treated wells were incubated with 30 μl of 1 μM ^3H-ADP in 1× Selection Buffer for 30 s with shaking at 650 RPM and then assessed for ADP-mediated signal by quantification on a TopCount, ^3H SPA scintillation counter.
Clones were initially assessed for the ability to yield ADP-mediated signal in the ADP SPA.

[2] = SPA competitive binding of ADP aptamer clones (cold ADP vs other adenosine nucleoside derivatives); conditions: competitive binding analysis; FIG. 29
Procedure: NEN flashplates used in the ADP SPA screen and competition binding studies were prepared by incubating the individual wells with 40 pmol of MK08.112A biotinylated capture probe in 22 μl of PBS Buffer: BupH (0.05% tRNA, 0.025% Tween 20) with and shaking at 650 RPM, 15 min. Excess capture probe was removed from the wells by washing with 1×PBS 3 times and inverting plate with force to remove liquid and blotting them dry on paper towels. Crude transcription of RNA transcribed with capture probe sequence (5 μl) in 25 μl 1×PBS was incubated in designated wells with shaking at 650 RPM for 30 min. Excess aptamer was removed by washing with 1×PBS 3 times and blotting as before. Treated wells were incubated with 30 μl of 1 μM ^3H-ADP in 1× Selection Buffer for 30 s with shaking at 650 RPM and then assessed for ADP-mediated signal by quantification on a TopCount, ^3H SPA scintillation counter.
The best ADP binders, e.g., clones 1, 2, 11, 12, 14, and 16 were subsequently tested for ADP/ATP discrimination by competition with either cold ADP or ATP (FIG. 28). Clones such as F01 (clone #11), whose SPA signal was competed off with the lowest concentration of ADP, i.e., the best ADP binder, and correspondingly the highest concentration of ATP, i.e., the worst ATP binder, were considered to be ADP selective.

[3] = SPA KD determination for ADP aptamer F01, ATP; format: binding
Procedure: (§1) The specificity of the ADP aptamer clone F01 was characterized using a variety of nucleoside analogues and mimetics as shown in FIG. 30. NEN flashplates used in the ADP assay were prepared as described above using 150 pmol ADP clone F01 ( in 20 μl 1×PBS incubated in designated wells with shaking at 650 RPM for 30 min). Excess F01 aptamer was removed by washing with 1×PBS 3-times and blotting as before. Treated wells were incubated with 30 μl of 1 μM ^3H-ADP in 1× Selection Buffer for 30 s with shaking at 650 RPM and then assessed for ADP-mediated signal by quantification on a TopCount, ^3H SPA scintillation counter. Thereafter, 1 μl of each test compound was added to the appropriate wells and the plate shaken at 650 RPM for 30 s prior to recounting on TopCount, ^3H SPA scintillation counter. Titration of each test compound was continued with subsequent 1 μl additions up to 10 mM final concentration. The dissociation constant KD was estimated from the IC50 of the competitive binding curve.
This impurity confounds precise determination of ADP aptamer selectivity by SPA competition.

[4] = SPA KD determination for ADP aptamer F01, nucleoside analogs and mimetics; format: binding; conditions: SPA competition; KD estimated from IC50; FIG. 30
Procedure: as §1

B1: GGACGGATCGCGTGATGACGAGGGGAATGAACACCCCGGACAATCAGACACGGTCATCTCACACACCTCCCTGA (nucleic acid)
chain: GGACGGATCGCGTGATGACGAGGGGAATGAACACCCCGGACAATCAGACACGGTCATCTCACACACCTCCCTGA
modifications: RNA, all phosphodiester, T or U not given here
ADP-mediated signal in the SPA screening assay above background signal [1]: more than 2.5 fold | selectivity for ADP compared to other adenosine nucleoside derivatives (AMP, ATP, cAMP) [2]: highly selective for ADP | KD for ATP relative to KD for ADP ([3]; SPA competition, KD estimated from IC50): at least 70 fold | selectivity for ADP over ATP relative to what preliminary studies indicated ([3]; after column purification of ATP): approximately 4 fold | KD values of other nucleoside derivatives and mimetics relative to KD for ADP [4]: more than 300 fold
